Paper PMC8675521, “Improved methanol tolerance of Rhizomucor miehei lipase based on N‑glycosylation within the α-helix region and its application in biodiesel production” (Biotechnology for Biofuels, 2021)
Changes are numbered by the printed parent chain. In names and notes the source's numbering stands.

Substrate: CCCCCCCCCCCCCCCC(=O)Oc1ccc([N+](=O)[O-])cc1
Test: purified protein
Type: biochemical, Rhizomucor miehei
Settings: 50 mM PBS pH 8.0, 40 °C, 5 min
[1] = N115, made on N9A/N59A template, N-glycosylated
[2] = N260 [sic], made on N9A/N59A template, N-glycosylated
[3] = N218, made on N9A/N59A template, N-glycosylated
[4] = propeptide N-glycosylation sites removed
[5] = N93 [sic], made on N9A/N59A template, N-glycosylated
[6] = printed N183, made on N9A/N59A template, N-glycosylated

B1: ProRML (Rhizomucor miehei lipase with propeptide) (Rhizomucor miehei) (protein)
chain: AVPIKRQSNSTVDSLPPLIPSRTSAPSSSPSTTDPEAPAMSRNGPLPSDVETKYGMALNATSYPDSVVQAMSIDGGIRAATSQEINELTYYTTLSANSYCRTVIPGATWDCIHCDATEDLKIIKTWSTLIYDTNAMVARGDSEKTIYIVFRGSSSIRNWIADLTFVPVSYPPVSGTKVHKGFLDSYGEVQNELVATVLDQFKQYPSYKVAVTGHSLGGATALLCALDLYQREEGLSSSNLFLYTQGQPRVGDPAFANYVVSTGIPYRRTVNERDIVPHLPPAAFGFLHAGEEYWITDNSPETVQVCTSDLETSDCSNSIVPFTSVLDHLSYFGINTGLCT
notes: propeptide plus mature peptide, plasmid pPIC9K (alpha-factor secretion), Pichia pastoris GS115, HisTrap purified; about 40 kDa unglycosylated, mutants about 55 kDa N-glycosylated
Km: 1160 µM
kcat: 1.75 ± 0.0493 s⁻¹
kcat/Km: 1510 ± 42.5 M⁻¹ s⁻¹

B2: ProRML (Rhizomucor miehei lipase with propeptide) (Rhizomucor miehei; D138N/N32A/N82A) (protein)
chain: B1 chain with N9A, N59A, D115N
notes: as for B1
Km [1]: 640 µM
kcat [1]: 7.26 ± 0.277 s⁻¹
kcat/Km [1]: 11300 ± 432 M⁻¹ s⁻¹

B3: ProRML (Rhizomucor miehei lipase with propeptide) (Rhizomucor miehei; N32A/N82A/V283N) (protein)
chain: B1 chain with N9A, N59A, V260N
notes: as for B1
Km [2]: 1250 µM
kcat [2]: 4.89 ± 0.149 s⁻¹
kcat/Km [2]: 3930 ± 120 M⁻¹ s⁻¹

B4: ProRML (Rhizomucor miehei lipase with propeptide) (Rhizomucor miehei; G241N/N32A/N82A) (protein)
chain: B1 chain with N9A, N59A, G218N
notes: as for B1
Km [3]: 13200 µM
kcat/Km [3]: 64800 ± 1970 M⁻¹ s⁻¹

B5: ProRML (Rhizomucor miehei lipase with propeptide) (Rhizomucor miehei; N32A/N82A) (protein)
chain: B1 chain with N9A, N59A
notes: as for B1
Km [4]: 350 µM
kcat [4]: 0.844 ± 0.0385 s⁻¹
kcat/Km [4]: 2420 ± 111 M⁻¹ s⁻¹

B6: ProRML (Rhizomucor miehei lipase with propeptide) (Rhizomucor miehei; N32A/N82A/T116N) (protein)
chain: B1 chain with N9A, N59A, T93N
notes: as for B1
Km [5]: 4700 µM
kcat [5]: 63.6 ± 2.62 s⁻¹
kcat/Km [5]: 13500 ± 558 M⁻¹ s⁻¹

B7: ProRML (Rhizomucor miehei lipase with propeptide) (Rhizomucor miehei; L206N/N32A/N82A) (protein)
chain: B1 chain with N9A, N59A, L183N
notes: as for B1
Km [6]: 360 µM
kcat [6]: 1.186 ± 0.00633 s⁻¹
kcat/Km [6]: 3258 ± 17.5 M⁻¹ s⁻¹
